Laboratory results: the supplement of paper PMC10065799, “High-throughput profiling of sequence recognition by tyrosine kinases and SH2 domains using bacterial peptide display” (eLife, 2023)

Biological target: MERTK (UniProt Q12866)
Experiment: phosphorylation enrichment, bacterial display (enrichment ratio); higher = better substrate or ligand; peptides without Tyr show the background
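Further: 11-residue human phosphosite peptides and single-mutation variants displayed on the E. coli surface, counted by deep sequencing, each peptide's frequency after selection divided by its frequency in the unselected input library; frequency after pTyr selection over input frequency; kinase dosed for 20-30% of maximal phosphorylation in three min.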

MERTK, sequence (Q12866 whole entry, looked up): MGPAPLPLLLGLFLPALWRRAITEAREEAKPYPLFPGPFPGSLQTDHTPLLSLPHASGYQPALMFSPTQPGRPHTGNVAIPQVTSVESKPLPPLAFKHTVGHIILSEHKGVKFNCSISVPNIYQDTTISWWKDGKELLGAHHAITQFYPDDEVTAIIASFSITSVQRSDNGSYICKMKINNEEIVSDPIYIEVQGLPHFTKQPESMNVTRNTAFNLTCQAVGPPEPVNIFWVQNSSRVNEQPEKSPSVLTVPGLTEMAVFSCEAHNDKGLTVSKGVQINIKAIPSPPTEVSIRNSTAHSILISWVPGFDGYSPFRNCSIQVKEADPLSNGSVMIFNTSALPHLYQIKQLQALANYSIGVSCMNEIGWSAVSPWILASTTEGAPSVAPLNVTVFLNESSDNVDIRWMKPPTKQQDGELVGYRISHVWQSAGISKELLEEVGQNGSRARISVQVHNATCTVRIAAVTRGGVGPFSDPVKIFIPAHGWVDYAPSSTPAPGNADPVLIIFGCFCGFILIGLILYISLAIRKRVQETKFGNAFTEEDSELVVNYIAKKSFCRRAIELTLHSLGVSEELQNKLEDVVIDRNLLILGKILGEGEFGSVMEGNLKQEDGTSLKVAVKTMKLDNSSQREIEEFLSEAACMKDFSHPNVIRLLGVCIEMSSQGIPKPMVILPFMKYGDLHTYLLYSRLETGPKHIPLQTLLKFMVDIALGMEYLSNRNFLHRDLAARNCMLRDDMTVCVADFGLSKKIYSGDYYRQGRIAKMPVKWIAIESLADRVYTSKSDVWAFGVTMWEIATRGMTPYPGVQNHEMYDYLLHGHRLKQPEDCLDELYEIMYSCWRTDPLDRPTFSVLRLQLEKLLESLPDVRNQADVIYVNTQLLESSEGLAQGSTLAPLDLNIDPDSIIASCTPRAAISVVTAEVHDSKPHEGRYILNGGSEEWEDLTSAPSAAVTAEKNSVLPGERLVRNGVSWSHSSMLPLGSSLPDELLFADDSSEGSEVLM

First: IINENYDFLKV [NUP98_Y1664_G1669V_YF]
Second: RNESFYDTFST [EFCAB3_Y372]
The phosphorylation enrichment of the first is lower: 0.838 for the first, 15.6 for the second.

Going from SRASYYRKGGC [ALK_Y1283_Y1278S] to ISHVAYLVLGK [TRRAP_Y892_R893L], the phosphorylation enrichment rises from 0.428 to 0.53.

Compared with HLWRIYFDITD [MMP27_Y307_YF], KLIETCFSKNY [PLP1_Y50_Y50C] is higher in phosphorylation enrichment: 0.366 for the first, 0.474 for the second.

Compared with AVISVYDLVVV [PSEN1_Y256_A260V], PSELFYSKIGP [SMG1_Y2254_YF] is higher in phosphorylation enrichment: 6.78 for the first, 15.5 for the second.

Going from ASELGYQFQAI [UROD_Y133_V134Q] to RKKEEYKMAPY [F8_Y1990_L1994P], the phosphorylation enrichment rises from 0.387 to 0.933.

Compared with RLPINYTTRRI [LAMA2_Y2894_G2889R], FGSSSYGGAGG [RPA2_Y14_YF] is lower in phosphorylation enrichment: 0.663 for the first, 0.329 for the second.

First: TEGNGYISFNE [LCP1_Y28_D24E]
Second: WLFFRYLPIGC [ATP2A2_Y836_A838P]
The phosphorylation enrichment of the first is higher: 0.499 for the first, 0.415 for the second.

Going from LKGQVYILGRE [ASS1_Y359] to YGMSSYITRED [FNDC3B_Y180_T179S], the phosphorylation enrichment falls from 0.56 to 0.544.

First: DSFATYFRRVL [H2BW1_Y84]
Second: NHYKICNLCAE [PTEN_Y68_Y68C]
The phosphorylation enrichment of the first is lower: 0.448 for the first, 0.45 for the second.

First: VNCHQYDGLVE [ATP2A2_Y407]
Second: GREEFYSTHPH [LRRK2_Y1402]
The phosphorylation enrichment of the first is lower: 0.499 for the first, 1.52 for the second.

Compared with KLPYLYDDPFS [GPX2_Y127_P126L], GVRTIYTIDGS [DCLK2_Y124] is lower in phosphorylation enrichment: 2.58 for the first, 0.553 for the second.

First: KSAAIYNPVIF [RHO_Y301_YF]
Second: NTEGGYCCICA [CRELD1_Y328_R329C]
The phosphorylation enrichment of the first is higher: 4.6 for the first, 0.673 for the second.

Compared with VIKDKYPKVRF [APTX_Y209_A212V_YF], DFPGIYSGFDD [POLR1C_Y33_N32I_YF] is higher in phosphorylation enrichment: 0.4 for the first, 0.814 for the second.

Going from LTFHMYADPNF [SOS1_Y618_YF] to ILGRYYETSSI [PAX2_Y73_G76S], the phosphorylation enrichment falls from 0.843 to 0.594.

PQEVTYAQLDH [KIR3DL2_Y398] showed a phosphorylation enrichment of 3.38.

Biological target: FGFR1 (UniProt P11362)
Experiment: as above

FGFR1, sequence (P11362 whole entry, looked up): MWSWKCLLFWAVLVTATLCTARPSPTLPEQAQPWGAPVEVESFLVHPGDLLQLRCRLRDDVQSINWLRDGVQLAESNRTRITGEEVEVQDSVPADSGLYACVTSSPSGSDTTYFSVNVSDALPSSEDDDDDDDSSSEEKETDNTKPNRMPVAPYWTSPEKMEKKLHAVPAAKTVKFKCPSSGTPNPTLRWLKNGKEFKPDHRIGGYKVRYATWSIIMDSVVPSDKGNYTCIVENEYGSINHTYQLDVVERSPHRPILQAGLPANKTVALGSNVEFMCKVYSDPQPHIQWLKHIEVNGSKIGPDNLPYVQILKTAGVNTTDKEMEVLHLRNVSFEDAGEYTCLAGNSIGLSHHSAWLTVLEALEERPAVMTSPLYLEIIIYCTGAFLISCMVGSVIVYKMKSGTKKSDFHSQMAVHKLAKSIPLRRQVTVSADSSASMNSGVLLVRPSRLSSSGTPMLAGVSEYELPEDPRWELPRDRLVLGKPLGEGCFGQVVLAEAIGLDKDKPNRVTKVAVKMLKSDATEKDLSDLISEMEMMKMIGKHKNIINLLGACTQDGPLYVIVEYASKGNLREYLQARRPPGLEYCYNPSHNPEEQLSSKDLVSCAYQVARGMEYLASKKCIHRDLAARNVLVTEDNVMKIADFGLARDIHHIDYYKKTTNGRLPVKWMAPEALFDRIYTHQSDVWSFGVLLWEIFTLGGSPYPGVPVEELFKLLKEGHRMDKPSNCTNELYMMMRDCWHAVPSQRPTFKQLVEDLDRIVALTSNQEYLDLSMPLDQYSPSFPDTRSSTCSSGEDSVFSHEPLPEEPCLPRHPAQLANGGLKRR

Going from IINENYDFLKV [NUP98_Y1664_G1669V_YF] to RNESFYDTFST [EFCAB3_Y372], the phosphorylation enrichment falls from 0.862 to 0.852.

Compared with SRASYYRKGGC [ALK_Y1283_Y1278S], ISHVAYLVLGK [TRRAP_Y892_R893L] is higher in phosphorylation enrichment: 0.414 for the first, 0.535 for the second.

First: HLWRIYFDITD [MMP27_Y307_YF]
Second: KLIETCFSKNY [PLP1_Y50_Y50C]
The phosphorylation enrichment of the first is higher: 0.973 for the first, 0.473 for the second.

Going from AVISVYDLVVV [PSEN1_Y256_A260V] to PSELFYSKIGP [SMG1_Y2254_YF], the phosphorylation enrichment rises from 0.726 to 5.34.

First: ASELGYQFQAI [UROD_Y133_V134Q]
Second: RKKEEYKMAPY [F8_Y1990_L1994P]
The phosphorylation enrichment of the first is lower: 0.525 for the first, 1.18 for the second.

Going from RLPINYTTRRI [LAMA2_Y2894_G2889R] to FGSSSYGGAGG [RPA2_Y14_YF], the phosphorylation enrichment falls from 0.743 to 0.437.

Compared with TEGNGYISFNE [LCP1_Y28_D24E], WLFFRYLPIGC [ATP2A2_Y836_A838P] is higher in phosphorylation enrichment: 0.468 for the first, 0.538 for the second.

Going from LKGQVYILGRE [ASS1_Y359] to YGMSSYITRED [FNDC3B_Y180_T179S], the phosphorylation enrichment rises from 0.406 to 0.529.

First: DSFATYFRRVL [H2BW1_Y84]
Second: NHYKICNLCAE [PTEN_Y68_Y68C]
The phosphorylation enrichment of the first is higher: 0.496 for the first, 0.488 for the second.

Compared with VNCHQYDGLVE [ATP2A2_Y407], GREEFYSTHPH [LRRK2_Y1402] is lower in phosphorylation enrichment: 0.614 for the first, 0.505 for the second.

First: KLPYLYDDPFS [GPX2_Y127_P126L]
Second: GVRTIYTIDGS [DCLK2_Y124]
The phosphorylation enrichment of the first is lower: 0.489 for the first, 0.581 for the second.

First: KSAAIYNPVIF [RHO_Y301_YF]
Second: NTEGGYCCICA [CRELD1_Y328_R329C]
The phosphorylation enrichment of the first is higher: 0.567 for the first, 0.562 for the second.

Compared with VIKDKYPKVRF [APTX_Y209_A212V_YF], DFPGIYSGFDD [POLR1C_Y33_N32I_YF] is higher in phosphorylation enrichment: 0.444 for the first, 0.531 for the second.

Compared with LTFHMYADPNF [SOS1_Y618_YF], ILGRYYETSSI [PAX2_Y73_G76S] is higher in phosphorylation enrichment: 0.715 for the first, 0.86 for the second.

Work on PQEVTYAQLDH [KIR3DL2_Y398] yielded a phosphorylation enrichment of 3.41.

Test system: AncSZ
Experiment: as above

Compared with IINENYDFLKV [NUP98_Y1664_G1669V_YF], RNESFYDTFST [EFCAB3_Y372] is higher in phosphorylation enrichment: 1.05 for the first, 1.07 for the second.

Compared with SRASYYRKGGC [ALK_Y1283_Y1278S], ISHVAYLVLGK [TRRAP_Y892_R893L] is higher in phosphorylation enrichment: 0.522 for the first, 0.95 for the second.

Compared with HLWRIYFDITD [MMP27_Y307_YF], KLIETCFSKNY [PLP1_Y50_Y50C] is lower in phosphorylation enrichment: 1.39 for the first, 1.07 for the second.

Compared with AVISVYDLVVV [PSEN1_Y256_A260V], PSELFYSKIGP [SMG1_Y2254_YF] is lower in phosphorylation enrichment: 1.54 for the first, 1.21 for the second.

Going from ASELGYQFQAI [UROD_Y133_V134Q] to RKKEEYKMAPY [F8_Y1990_L1994P], the phosphorylation enrichment rises from 0.77 to 1.16.

Going from RLPINYTTRRI [LAMA2_Y2894_G2889R] to FGSSSYGGAGG [RPA2_Y14_YF], the phosphorylation enrichment falls from 0.873 to 0.415.

Going from TEGNGYISFNE [LCP1_Y28_D24E] to WLFFRYLPIGC [ATP2A2_Y836_A838P], the phosphorylation enrichment rises from 1.09 to 1.29.

Going from LKGQVYILGRE [ASS1_Y359] to YGMSSYITRED [FNDC3B_Y180_T179S], the phosphorylation enrichment falls from 1.09 to 0.819.

Going from DSFATYFRRVL [H2BW1_Y84] to NHYKICNLCAE [PTEN_Y68_Y68C], the phosphorylation enrichment falls from 1.35 to 0.663.

Compared with VNCHQYDGLVE [ATP2A2_Y407], GREEFYSTHPH [LRRK2_Y1402] is lower in phosphorylation enrichment: 1.06 for the first, 0.576 for the second.

First: KLPYLYDDPFS [GPX2_Y127_P126L]
Second: GVRTIYTIDGS [DCLK2_Y124]
The phosphorylation enrichment of the first is higher: 1.22 for the first, 0.803 for the second.

Going from KSAAIYNPVIF [RHO_Y301_YF] to NTEGGYCCICA [CRELD1_Y328_R329C], the phosphorylation enrichment rises from 0.757 to 1.02.

Compared with VIKDKYPKVRF [APTX_Y209_A212V_YF], DFPGIYSGFDD [POLR1C_Y33_N32I_YF] is higher in phosphorylation enrichment: 0.493 for the first, 1.31 for the second.

Compared with LTFHMYADPNF [SOS1_Y618_YF], ILGRYYETSSI [PAX2_Y73_G76S] is lower in phosphorylation enrichment: 1.81 for the first, 0.724 for the second.

PQEVTYAQLDH [KIR3DL2_Y398] was tested, and the phosphorylation enrichment was 2.44.

Biological target: Hck (UniProt P08631)
Experiment: as above

Hck, sequence (P08631 whole entry, looked up): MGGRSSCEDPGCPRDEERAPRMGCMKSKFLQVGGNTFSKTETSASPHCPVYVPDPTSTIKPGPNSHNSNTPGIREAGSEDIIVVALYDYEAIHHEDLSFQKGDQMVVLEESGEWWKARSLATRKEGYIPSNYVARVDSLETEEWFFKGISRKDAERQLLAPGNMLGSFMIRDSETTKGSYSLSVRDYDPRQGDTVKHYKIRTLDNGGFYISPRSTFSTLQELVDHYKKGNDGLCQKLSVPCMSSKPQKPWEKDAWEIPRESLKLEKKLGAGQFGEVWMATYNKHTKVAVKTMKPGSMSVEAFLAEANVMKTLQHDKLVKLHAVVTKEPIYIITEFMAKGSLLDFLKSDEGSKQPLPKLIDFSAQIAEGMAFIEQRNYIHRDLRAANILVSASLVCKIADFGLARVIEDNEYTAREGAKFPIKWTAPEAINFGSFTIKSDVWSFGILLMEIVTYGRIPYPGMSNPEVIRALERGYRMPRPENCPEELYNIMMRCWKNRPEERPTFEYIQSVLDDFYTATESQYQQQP

First: IINENYDFLKV [NUP98_Y1664_G1669V_YF]
Second: RNESFYDTFST [EFCAB3_Y372]
The phosphorylation enrichment of the first is lower: 2.17 for the first, 14.3 for the second.

Compared with SRASYYRKGGC [ALK_Y1283_Y1278S], ISHVAYLVLGK [TRRAP_Y892_R893L] is higher in phosphorylation enrichment: 0.37 for the first, 0.485 for the second.

Going from HLWRIYFDITD [MMP27_Y307_YF] to KLIETCFSKNY [PLP1_Y50_Y50C], the phosphorylation enrichment falls from 0.739 to 0.621.

Going from AVISVYDLVVV [PSEN1_Y256_A260V] to PSELFYSKIGP [SMG1_Y2254_YF], the phosphorylation enrichment rises from 4.14 to 10.6.

Going from ASELGYQFQAI [UROD_Y133_V134Q] to RKKEEYKMAPY [F8_Y1990_L1994P], the phosphorylation enrichment rises from 0.468 to 1.06.

Compared with RLPINYTTRRI [LAMA2_Y2894_G2889R], FGSSSYGGAGG [RPA2_Y14_YF] is lower in phosphorylation enrichment: 0.534 for the first, 0.374 for the second.

Going from TEGNGYISFNE [LCP1_Y28_D24E] to WLFFRYLPIGC [ATP2A2_Y836_A838P], the phosphorylation enrichment falls from 0.528 to 0.477.

Compared with LKGQVYILGRE [ASS1_Y359], YGMSSYITRED [FNDC3B_Y180_T179S] is higher in phosphorylation enrichment: 0.369 for the first, 0.431 for the second.

Going from DSFATYFRRVL [H2BW1_Y84] to NHYKICNLCAE [PTEN_Y68_Y68C], the phosphorylation enrichment falls from 0.82 to 0.378.

Compared with VNCHQYDGLVE [ATP2A2_Y407], GREEFYSTHPH [LRRK2_Y1402] is higher in phosphorylation enrichment: 0.651 for the first, 0.679 for the second.

Going from KLPYLYDDPFS [GPX2_Y127_P126L] to GVRTIYTIDGS [DCLK2_Y124], the phosphorylation enrichment falls from 1.46 to 0.697.

First: KSAAIYNPVIF [RHO_Y301_YF]
Second: NTEGGYCCICA [CRELD1_Y328_R329C]
The phosphorylation enrichment of the first is higher: 8.01 for the first, 0.911 for the second.

Compared with VIKDKYPKVRF [APTX_Y209_A212V_YF], DFPGIYSGFDD [POLR1C_Y33_N32I_YF] is higher in phosphorylation enrichment: 0.443 for the first, 6.28 for the second.

Compared with LTFHMYADPNF [SOS1_Y618_YF], ILGRYYETSSI [PAX2_Y73_G76S] is lower in phosphorylation enrichment: 0.711 for the first, 0.524 for the second.

For PQEVTYAQLDH [KIR3DL2_Y398], the phosphorylation enrichment was 10.7.
